Source: patent US20190119318A1

Legend:
[1] = molecular target: human polyclonal IgG (Gammanorm) (human); test: SPR; vs reference Zvar1; 0.5 M NaOH cycles
[2] = molecular target: human polyclonal IgG (Gammanorm) (human); test: SPR; after 96-100 CIP cycles 0.5 M NaOH

| Substance | capacity relative to reference [1] | capacity after 96-100 cycles [2] | reference capacity after 96-100 cycles [2] |
| --- | --- | --- | --- |
| Zvar(Q9A,N11E,A29F,Q40V,A42K,N43A,L44I)1 (designed binder) | 1.35 | 62% |  |
| Zvar(Q9A,N11E,A29Y,Q40V,A42K,N43A,L44I)1 (designed binder) | 1.27 | 61% |  |
| Zvar(N11K,H18K,D37E,A42R,N43A,L44I)1 (designed binder) | 1.31 | 59% |  |
| Zvar(Q9A,N11E,A29M,Q40V,A42K,N43A,L44I)1 (designed binder) | 1.32 | 62% |  |
| Zvar(Q9A,N11E,A29W,Q40V,A42K,N43A,L44I)1 (designed binder) | 1.3 | 60% |  |
| Zvar(Q9A,N11E,A29E,Q40V,A42K,N43A,L44I)1 (designed binder) | 1.21 | 57% |  |
| parental B domain of Staphylococcus Protein A (from UniProt A0A0H3K686 212-269) |  |  | 35% |
| Zvar(Q9A,N11E,A29D,Q40V,A42K,N43A,L44I)1 (designed binder) | 1.19 | 56% |  |
| Zvar(Q9A,N11E,Q40V,A42K,N43A,L44I,D53R)1 (designed binder) | 1.3 | 60% |  |
| Zvar(Q9A,N11E,A29K,Q40V,A42K,N43A,L44I)1 (designed binder) | 1.28 | 59% |  |
| Zvar(Q9A,N11E,A29N,Q40V,A42K,N43A,L44I)1 (designed binder) | 1.3 | 61% |  |

Second part, the substance after the results:

| capacity relative to reference [1] | capacity after 96-100 cycles [2] | reference capacity after 96-100 cycles [2] | Substance |
| --- | --- | --- | --- |
| 1.46 | 67% |  | Zvar(N11K,H18K,S33K,D37E,A42R,N43A,L44I,K50R,L51Y)1 (designed binder) |
| 1.38 | 66% |  | Zvar(Q9A,N11E,A29S,Q40V,A42K,N43A,L44I)1 (designed binder) |
| 1.21 | 57% |  | Zvar(Q9A,N11E,A29H,Q40V,A42K,N43A,L44I)1 (designed binder) |
| 1.28 | 59% |  | Zvar(Q9A,N11K,H18K,S33K,D37E,A42R,N43A,L44I,K50R,L51Y)1 (designed binder) |
| 1.04 | 53% |  | Zvar(N11E,Q32E,K50R)1 (designed binder) |
| 1.33 | 61% |  | Zvar(Q9A,N11E,A29L,Q40V,A42K,N43A,L44I)1 (designed binder) |
| 1.35 | 62% |  | Zvar(Q9A,N11E,Q40V,A42K,N43A,L44I,D53W)1 (designed binder) |
| 1.24 | 57% |  | Zvar(Q9A,N11E,Q40V,A42del,N43A,L44I)1 (designed binder) |
| 1.28 | 59% |  | Zvar(Q9A,N11E,Q40V,A42K,N43A,L44I,D53Y)1 (designed binder) |
| 1.26 | 58% |  | Zvar(Q9A,N11E,Q40V,A42K,N43A,L44I,D53F)1 (designed binder) |
| 1.32 | 62% |  | Zvar(Q9A,N11E,A29V,Q40V,A42K,N43A,L44I)1 (designed binder) |
| 1.49 | 67% |  | Zvar(Q9A,N11K,H18K,D37E,A42R,N43A,L44I,K50R)1 (designed binder) |
| 1.35 | 65% |  | Zvar(Q9A,N11E,N28A,Q40V,A42K,N43A,L44I)1 (designed binder) |
| 1.3 | 60% |  | Zvar(Q9del,N11E,Q40V,A42K,N43A,L44I)1 (designed binder) |
|  |  | 49% | parental C domain of Staphylococcus Protein A (from UniProt A0A0H3K686 270-327) |
